Source: PMC11236199, “Variation in structural motifs within SARS-related coronavirus spike proteins” (PLOS Pathogens, 2024)

Target: the molecule itself
Test: cryo-EM structure

B1: Bat SARS-like coronavirus WIV1 spike protein ectodomain (domain or fragment)
chain: not shown
notes: also called bCoV-WIV1; bat SL-CoV WIV1
For B1, the “stoichiometry N” value was 3.
